One substance from publication PMC3467265 can be followed below.

This experiment has as its target Cryptosporidium parvum pyruvate kinase (Cryptosporidium parvum). In words: SEC; analytical Superdex 200 10/30, partially purified CpPyK, elution compared with catalase (Mr 232 kDa) run separately; fractions checked by SDS-PAGE. For orientation: In gel filtration, larger molecules generally elute earlier.

In turn, “Cryptosporidium parvum pyruvate kinase (enzyme)” registered a stoichiometry N of 4.

The term stoichiometry N denotes a count of units in the complex or per binding partner.
